Assay results reported in article PMC8331134, “Increased expression of ANAC017 primes for accelerated senescence”.

Key:
[1] = molecular target: T1, ANAC017 (lacking C-terminal transmembrane domain) (Arabidopsis thaliana, UniProt Q9XIC5 1-525); experiment: EMSA; stronger than MDM2; Binding reactions as in Ng et al. 2013 (buffer, pH, temperature not given); 12% acrylamide 0.5x TBE gels; conditions: protein: recombinant; tags: GST (pDEST15); chain copies: 2; label: 32P 5' end (T4 PNK)
T1 sequence: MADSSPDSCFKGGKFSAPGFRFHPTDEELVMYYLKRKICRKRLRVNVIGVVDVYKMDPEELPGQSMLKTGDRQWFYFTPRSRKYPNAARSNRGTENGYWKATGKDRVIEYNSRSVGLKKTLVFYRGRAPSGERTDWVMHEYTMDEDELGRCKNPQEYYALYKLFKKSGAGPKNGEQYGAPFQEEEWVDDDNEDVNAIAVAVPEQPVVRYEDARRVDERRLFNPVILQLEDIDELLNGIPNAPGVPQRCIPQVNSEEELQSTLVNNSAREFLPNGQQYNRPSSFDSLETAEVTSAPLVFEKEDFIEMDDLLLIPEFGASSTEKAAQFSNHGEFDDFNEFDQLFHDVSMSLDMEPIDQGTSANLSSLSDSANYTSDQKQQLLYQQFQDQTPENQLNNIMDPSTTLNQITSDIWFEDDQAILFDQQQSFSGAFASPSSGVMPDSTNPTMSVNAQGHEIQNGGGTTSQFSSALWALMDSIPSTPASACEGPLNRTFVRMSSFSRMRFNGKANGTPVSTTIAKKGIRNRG

[2] = molecular target: T1, ANAC017 (lacking C-terminal …); experiment: EMSA; clear shift, less than MDM1; Binding reactions as in Ng et al. 2013 (buffer, pH, temperature not given); 12% acrylamide 0.5x TBE gels; conditions: protein: recombinant; tags: GST (pDEST15); chain copies: 2; label: 32P 5' end (T4 PNK)

B1: ANAC016 intron 1 MDM1 probe (dsDNA)
DNA 1: GATGTAGTTGAGTATATGACAAGGAAAAGTTTTGGTTGTT
DNA 2: AACAACCAAAACTTTTCCTTGTCATATACTCAACTACATC
Question: Does B1 bind [1]?
Answer: Result: binds

B2: ANAC016 intron 1 MDM2 probe (dsDNA)
DNA 1: GATTTGTTGAGTATATGACAAGGAAACGTCTTTATTCACT
DNA 2: AGTGAATAAAGACGTTTCCTTGTCATATACTCAACAAATC
Question: Does B2 bind [2]?
Answer: Result: binds
